Test results: the supplement of paper PMC9112550, “Optimization of the antimicrobial peptide Bac7 by deep mutational scanning” (BMC Biology, 2022)

These sequences were tested on Escherichia coli TOP10 (assay: shrunken log2 fold change of peptide-encoding DNA abundance (4.5 h post-induction vs induction); higher = less antimicrobial activity (less host growth inhibition)). Details: time post-induction: 4.5 h; library: site-saturation at positions 5, 18, 19, 20.
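Further: peptides expressed intracellularly from a pBAD plasmid library in pooled LB shake-flask culture, induced with 0.3% L-arabinose, DNA abundance read by NGS, three biological replicates, DESeq2 with apeglm shrinkage.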

Row | Sequence | shrunken log2 fold change
1 | RRIRMRPPRLPRPRPRPWWLPRP | 0.0657
2 | RRIRGRPPRLPRPRPRPDSEPRP | 0.321
3 | RRIRWRPPRLPRPRPRPDKPPRP | 0.0507
4 | RRIRDRPPRLPRPRPRPPWKPRP | 0.141
5 | RRIRIRPPRLPRPRPRPPPPPRP | 0.714
6 | RRIRDRPPRLPRPRPRPPSKPRP | 0.0904
7 | RRIRDRPPRLPRPRPRPGVPPRP | 0.000778
8 | RRIRQRPPRLPRPRPRPKMRPRP | 0.0141
9 | RRIRIRPPRLPRPRPRPSCDPRP | 0.346
10 | RRIRDRPPRLPRPRPRPLEQPRP | 0.57
11 | RRIRGRPPRLPRPRPRPLEMPRP | 0.998
12 | RRIRRRPPRLPRPRPRPKMHPRP | 0.443
13 | RRIRPRPPRLPRPRPRPLVKPRP | -0.0409
14 | RRIRYRPPRLPRPRPRPRYGPRP | -0.678
15 | RRIRKRPPRLPRPRPRPRCQPRP | 0.099
16 | RRIRSRPPRLPRPRPRPFTMPRP | -0.811
17 | RRIRIRPPRLPRPRPRPKNNPRP | -0.878
18 | RRIRRRPPRLPRPRPRPWNYPRP | -0.242
19 | RRIRTRPPRLPRPRPRPCLEPRP | -0.279
20 | RRIRCRPPRLPRPRPRPTDMPRP | -0.16
21 | RRIRVRPPRLPRPRPRPWTQPRP | -0.219
22 | RRIRCRPPRLPRPRPRPLYFPRP | -0.836
23 | RRIRNRPPRLPRPRPRPHYCPRP | -0.481
24 | RRIRDRPPRLPRPRPRPERQPRP | -0.00783
25 | RRIRGRPPRLPRPRPRPVHRPRP | -0.0492

Row | Sequence | shrunken log2 fold change
26 | RRIRCRPPRLPRPRPRPTQGPRP | 0.954
27 | RRIRYRPPRLPRPRPRPDCEPRP | 0.0295
28 | RRIRGRPPRLPRPRPRPFWGPRP | 0.289
29 | RRIRDRPPRLPRPRPRPIWNPRP | -0.0889
30 | RRIRERPPRLPRPRPRPLNPPRP | -0.0394
31 | RRIRYRPPRLPRPRPRPEYWPRP | -0.692
32 | RRIRHRPPRLPRPRPRPDYCPRP | -0.01
33 | RRIRPRPPRLPRPRPRPREFPRP | 0.485
34 | RRIRYRPPRLPRPRPRPFVAPRP | -0.696
35 | RRIRERPPRLPRPRPRPAGAPRP | 0.464
36 | RRIRYRPPRLPRPRPRPMVAPRP | 0.133
37 | RRIRNRPPRLPRPRPRPFGLPRP | -0.231
38 | RRIRDRPPRLPRPRPRPYYEPRP | -0.226
39 | RRIRERPPRLPRPRPRPKQLPRP | 0.123
40 | RRIRMRPPRLPRPRPRPEDNPRP | 0.0325
41 | RRIRIRPPRLPRPRPRPQPKPRP | -0.0343
42 | RRIRNRPPRLPRPRPRPPQMPRP | 0.234
43 | RRIRGRPPRLPRPRPRPIGNPRP | -0.149
44 | RRIRARPPRLPRPRPRPVFMPRP | 0.0722
45 | RRIRKRPPRLPRPRPRPHYTPRP | -0.395
46 | RRIRFRPPRLPRPRPRPICDPRP | 0.0526
47 | RRIRRRPPRLPRPRPRPQPIPRP | 0.206
48 | RRIRQRPPRLPRPRPRPCDGPRP | -0.26
49 | RRIRRRPPRLPRPRPRPTLDPRP | 0.809
50 | RRIRLRPPRLPRPRPRPDIEPRP | 0.0333

Row | Sequence | shrunken log2 fold change
51 | RRIRARPPRLPRPRPRPVRIPRP | 0.00598
52 | RRIRPRPPRLPRPRPRPKLEPRP | 0.121
53 | RRIRIRPPRLPRPRPRPHGHPRP | -0.216
54 | RRIRPRPPRLPRPRPRPDFDPRP | -0.03
55 | RRIRWRPPRLPRPRPRPFHNPRP | -0.392
56 | RRIRNRPPRLPRPRPRPHMFPRP | -0.0579
57 | RRIRCRPPRLPRPRPRPRAEPRP | 0.539
58 | RRIRERPPRLPRPRPRPKYGPRP | -0.567
59 | RRIRERPPRLPRPRPRPQHAPRP | -0.107
60 | RRIRSRPPRLPRPRPRPCAVPRP | -0.255
61 | RRIRWRPPRLPRPRPRPPHKPRP | 0.339
62 | RRIRVRPPRLPRPRPRPEIIPRP | -0.0128
63 | RRIRGRPPRLPRPRPRPDMKPRP | 0.00543
64 | RRIRQRPPRLPRPRPRPSDQPRP | 0.152
65 | RRIRFRPPRLPRPRPRPVEAPRP | -0.103
66 | RRIRWRPPRLPRPRPRPVIIPRP | -0.219
67 | RRIRMRPPRLPRPRPRPECLPRP | 1.6
68 | RRIRWRPPRLPRPRPRPLTGPRP | -0.396
69 | RRIRERPPRLPRPRPRPERDPRP | -0.0208
70 | RRIRIRPPRLPRPRPRPFQCPRP | 0.00367
71 | RRIRIRPPRLPRPRPRPRDPPRP | 1.94
72 | RRIRWRPPRLPRPRPRPSEHPRP | -0.0852
73 | RRIRKRPPRLPRPRPRPHVLPRP | 0.0607
74 | RRIRRRPPRLPRPRPRPVWYPRP | 0.18
75 | RRIRIRPPRLPRPRPRPPDMPRP | -0.16

Row | Sequence | shrunken log2 fold change
76 | RRIRARPPRLPRPRPRPRNCPRP | 0.849
77 | RRIRCRPPRLPRPRPRPMDTPRP | 0.0459
78 | RRIRPRPPRLPRPRPRPPQLPRP | 0.378
79 | RRIRWRPPRLPRPRPRPTTQPRP | -0.0204
80 | RRIRQRPPRLPRPRPRPLQKPRP | -0.0062
81 | RRIRMRPPRLPRPRPRPDCGPRP | -0.167
82 | RRIRNRPPRLPRPRPRPVNYPRP | -0.179
83 | RRIRARPPRLPRPRPRPEMIPRP | 0.0273
84 | RRIRERPPRLPRPRPRPCPCPRP | -0.341
85 | RRIRHRPPRLPRPRPRPAIYPRP | -0.798
86 | RRIRDRPPRLPRPRPRPDKQPRP | -0.129
87 | RRIRQRPPRLPRPRPRPCHPPRP | -0.032
88 | RRIRYRPPRLPRPRPRPVFLPRP | -0.538
89 | RRIRSRPPRLPRPRPRPKFQPRP | 0.146
90 | RRIRCRPPRLPRPRPRPWSPPRP | -0.0395
91 | RRIRQRPPRLPRPRPRPVIQPRP | -0.065
92 | RRIRFRPPRLPRPRPRPHESPRP | -0.0515
93 | RRIRTRPPRLPRPRPRPVCKPRP | -0.0432
94 | RRIRARPPRLPRPRPRPLHKPRP | 0.408
95 | RRIRKRPPRLPRPRPRPGNNPRP | -0.107
96 | RRIRYRPPRLPRPRPRPHWPPRP | -0.322
97 | RRIRCRPPRLPRPRPRPHEMPRP | -0.0763
98 | RRIRGRPPRLPRPRPRPPYVPRP | -0.21
99 | RRIRRRPPRLPRPRPRPVTWPRP | 0.182
100 | RRIRPRPPRLPRPRPRPKGSPRP | 0.0684

Row | Sequence | shrunken log2 fold change
101 | RRIRNRPPRLPRPRPRPMHSPRP | -0.0169
102 | RRIRTRPPRLPRPRPRPIKMPRP | -0.0667
103 | RRIRTRPPRLPRPRPRPNLKPRP | -0.374
104 | RRIRMRPPRLPRPRPRPFIIPRP | -0.268
105 | RRIRVRPPRLPRPRPRPFQTPRP | -0.214
106 | RRIRIRPPRLPRPRPRPCSMPRP | -0.00947
107 | RRIRNRPPRLPRPRPRPSSDPRP | -0.171
108 | RRIRMRPPRLPRPRPRPINMPRP | -0.0607
109 | RRIRIRPPRLPRPRPRPTNVPRP | -0.174
110 | RRIRNRPPRLPRPRPRPRDVPRP | 0.0624
111 | RRIRIRPPRLPRPRPRPTNEPRP | -0.4
112 | RRIRIRPPRLPRPRPRPHTVPRP | -0.588
113 | RRIRDRPPRLPRPRPRPKARPRP | 0.132
114 | RRIRLRPPRLPRPRPRPFFSPRP | -0.0767
115 | RRIRLRPPRLPRPRPRPYWEPRP | -0.0613
116 | RRIRKRPPRLPRPRPRPVVEPRP | 0.274
117 | RRIRIRPPRLPRPRPRPKQEPRP | 0.113
118 | RRIRERPPRLPRPRPRPFGPPRP | -0.146
119 | RRIRDRPPRLPRPRPRPYVVPRP | -0.159
120 | RRIRYRPPRLPRPRPRPVRDPRP | -0.123
121 | RRIRIRPPRLPRPRPRPISVPRP | 0.0153
122 | RRIRWRPPRLPRPRPRPQLFPRP | 0.0645
123 | RRIRTRPPRLPRPRPRPFGTPRP | -0.107
124 | RRIRKRPPRLPRPRPRPLSVPRP | -0.00128
125 | RRIRPRPPRLPRPRPRPIPTPRP | 0.00223

Row | Sequence | shrunken log2 fold change
126 | RRIRYRPPRLPRPRPRPILWPRP | -0.0119
127 | RRIRCRPPRLPRPRPRPTCKPRP | -0.184
128 | RRIRLRPPRLPRPRPRPFHIPRP | -0.292
129 | RRIRCRPPRLPRPRPRPVWRPRP | 0.358
130 | RRIRPRPPRLPRPRPRPQQWPRP | 0.182
131 | RRIRQRPPRLPRPRPRPHQDPRP | -0.327
132 | RRIRCRPPRLPRPRPRPMDMPRP | 0.00534
133 | RRIRDRPPRLPRPRPRPEYMPRP | -0.00941
134 | RRIRIRPPRLPRPRPRPEQFPRP | 0.00851
135 | RRIRPRPPRLPRPRPRPRNTPRP | 1.19
136 | RRIRNRPPRLPRPRPRPIQIPRP | -0.363
137 | RRIRWRPPRLPRPRPRPPNHPRP | 0.0941
138 | RRIRFRPPRLPRPRPRPVKCPRP | -0.0573
139 | RRIRHRPPRLPRPRPRPMMSPRP | 0.0372
140 | RRIRDRPPRLPRPRPRPYPYPRP | -0.0176
141 | RRIRARPPRLPRPRPRPRLYPRP | 0.501
142 | RRIRQRPPRLPRPRPRPWGHPRP | -0.0609
143 | RRIRCRPPRLPRPRPRPGAHPRP | 0.0157
144 | RRIRMRPPRLPRPRPRPVAKPRP | 1.43
145 | RRIRMRPPRLPRPRPRPKQPPRP | 2.34
146 | RRIRQRPPRLPRPRPRPWRVPRP | -0.049
147 | RRIRFRPPRLPRPRPRPWPNPRP | -0.086
148 | RRIRLRPPRLPRPRPRPPCGPRP | 0.191
149 | RRIRIRPPRLPRPRPRPDTRPRP | -0.293
150 | RRIRPRPPRLPRPRPRPWLVPRP | 0.159
